This is an account of results in PMC11711466, “Reconstitution of human DNA licensing and the structural and functional analysis of key intermediates” (Nature Communications, 2024).

The target in one assay is T1, human MCM3 (human, UniProt P25205 1-808).
T1 construct: Subunit of m6; also called hMCM3; source: HEK293-F, co-expressed hMCM2-7; in lysate (co-purification) and purified as hMCM2-7 (Ni-NTA, StrepTrapXT)
T1 sequence (looked up): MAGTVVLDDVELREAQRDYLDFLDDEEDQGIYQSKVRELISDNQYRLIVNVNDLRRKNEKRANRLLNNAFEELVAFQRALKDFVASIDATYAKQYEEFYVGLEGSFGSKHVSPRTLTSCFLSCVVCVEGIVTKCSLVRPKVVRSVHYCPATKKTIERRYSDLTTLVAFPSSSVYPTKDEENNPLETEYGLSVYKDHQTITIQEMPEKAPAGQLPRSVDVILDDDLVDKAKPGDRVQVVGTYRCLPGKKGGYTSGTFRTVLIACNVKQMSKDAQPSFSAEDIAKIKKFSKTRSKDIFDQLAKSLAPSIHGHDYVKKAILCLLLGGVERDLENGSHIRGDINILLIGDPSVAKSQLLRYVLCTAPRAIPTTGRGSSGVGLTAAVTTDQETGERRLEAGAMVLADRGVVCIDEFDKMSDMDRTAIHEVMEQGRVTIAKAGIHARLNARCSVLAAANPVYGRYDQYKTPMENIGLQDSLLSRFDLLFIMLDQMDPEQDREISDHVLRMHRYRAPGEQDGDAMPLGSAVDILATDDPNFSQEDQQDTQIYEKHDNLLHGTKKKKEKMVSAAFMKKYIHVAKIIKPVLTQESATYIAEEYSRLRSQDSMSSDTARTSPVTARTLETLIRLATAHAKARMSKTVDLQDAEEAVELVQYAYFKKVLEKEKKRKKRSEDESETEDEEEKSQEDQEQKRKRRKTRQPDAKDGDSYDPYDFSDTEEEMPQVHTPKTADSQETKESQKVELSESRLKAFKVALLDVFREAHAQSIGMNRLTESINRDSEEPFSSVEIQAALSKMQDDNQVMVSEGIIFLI
Nature of the assay: cryo-EM structure; hOCCM from a low-salt washed pre-RC reaction with ATPγS, eluted from the DNA beads with DNaseI; 6.09 Å. The note with it: both partners purified.

Another assay addresses T2, human ORC1 (human, UniProt Q13415 1-861).
T2 construct: human origin recognition complex subunit 1 (hORC1); Subunit of m1; also called hORC1; hORC1 N-tag; source: S. cerevisiae YC658, co-overexpressed with hORC2-5; in lysate (co-purification) and purified as hORC1-5 (StrepXT, heparin, glycerol gradient); not shown: Twin Strep-tag, N-terminal, kept
T2 sequence (looked up): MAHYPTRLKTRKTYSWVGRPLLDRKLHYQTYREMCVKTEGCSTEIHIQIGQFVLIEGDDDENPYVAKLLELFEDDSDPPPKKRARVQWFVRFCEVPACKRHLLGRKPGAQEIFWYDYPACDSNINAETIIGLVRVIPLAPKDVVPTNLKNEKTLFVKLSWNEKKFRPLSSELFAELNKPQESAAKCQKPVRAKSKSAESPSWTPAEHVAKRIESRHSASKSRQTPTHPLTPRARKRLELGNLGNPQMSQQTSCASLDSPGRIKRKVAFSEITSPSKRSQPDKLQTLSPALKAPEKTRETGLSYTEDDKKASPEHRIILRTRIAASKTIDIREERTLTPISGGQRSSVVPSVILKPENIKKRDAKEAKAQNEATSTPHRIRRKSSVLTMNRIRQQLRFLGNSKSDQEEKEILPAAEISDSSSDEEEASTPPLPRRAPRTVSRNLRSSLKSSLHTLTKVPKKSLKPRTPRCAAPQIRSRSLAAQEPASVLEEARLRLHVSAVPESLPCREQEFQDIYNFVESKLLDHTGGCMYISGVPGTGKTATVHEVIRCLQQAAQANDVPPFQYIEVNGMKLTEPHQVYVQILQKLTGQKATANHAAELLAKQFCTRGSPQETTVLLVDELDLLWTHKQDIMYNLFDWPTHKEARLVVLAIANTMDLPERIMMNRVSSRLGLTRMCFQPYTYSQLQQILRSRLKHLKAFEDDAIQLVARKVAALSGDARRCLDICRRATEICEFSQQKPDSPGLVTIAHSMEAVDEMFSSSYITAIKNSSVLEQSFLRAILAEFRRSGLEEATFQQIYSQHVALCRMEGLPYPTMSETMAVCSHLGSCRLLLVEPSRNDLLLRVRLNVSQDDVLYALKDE
In words: affinity co-purification; hORC1-5 co-overexpressed in G1-arrested budding yeast; StrepXT column on the N-terminal Strep tag of hORC1, then heparin column and glycerol gradient. The note with it: partners not purified.

The target of a further assay is T3, human MCM2 (human, UniProt P49736 1-904).
T3 construct: human MCM2 (hMCM2); Subunit of m6; also called hMCM2; source: HEK293-F, co-expressed hMCM2-7; in lysate (co-purification) and purified as hMCM2-7 (Ni-NTA, StrepTrapXT); not shown: twin Strep, N-terminal, kept
Nature of the assay: cryo-EM structure; hOCCM from a low-salt washed pre-RC reaction with ATPγS, eluted from the DNA beads with DNaseI; 6.09 Å. The note with it: both partners purified.

The next assay concerns the target T4, human MCM6 (human, UniProt Q14566 1-821).
T4 construct: Subunit of m6; also called hMCM6; source: HEK293-F, co-expressed hMCM2-7; in lysate (co-purification) and purified as hMCM2-7 (Ni-NTA, StrepTrapXT)
T4 sequence (looked up): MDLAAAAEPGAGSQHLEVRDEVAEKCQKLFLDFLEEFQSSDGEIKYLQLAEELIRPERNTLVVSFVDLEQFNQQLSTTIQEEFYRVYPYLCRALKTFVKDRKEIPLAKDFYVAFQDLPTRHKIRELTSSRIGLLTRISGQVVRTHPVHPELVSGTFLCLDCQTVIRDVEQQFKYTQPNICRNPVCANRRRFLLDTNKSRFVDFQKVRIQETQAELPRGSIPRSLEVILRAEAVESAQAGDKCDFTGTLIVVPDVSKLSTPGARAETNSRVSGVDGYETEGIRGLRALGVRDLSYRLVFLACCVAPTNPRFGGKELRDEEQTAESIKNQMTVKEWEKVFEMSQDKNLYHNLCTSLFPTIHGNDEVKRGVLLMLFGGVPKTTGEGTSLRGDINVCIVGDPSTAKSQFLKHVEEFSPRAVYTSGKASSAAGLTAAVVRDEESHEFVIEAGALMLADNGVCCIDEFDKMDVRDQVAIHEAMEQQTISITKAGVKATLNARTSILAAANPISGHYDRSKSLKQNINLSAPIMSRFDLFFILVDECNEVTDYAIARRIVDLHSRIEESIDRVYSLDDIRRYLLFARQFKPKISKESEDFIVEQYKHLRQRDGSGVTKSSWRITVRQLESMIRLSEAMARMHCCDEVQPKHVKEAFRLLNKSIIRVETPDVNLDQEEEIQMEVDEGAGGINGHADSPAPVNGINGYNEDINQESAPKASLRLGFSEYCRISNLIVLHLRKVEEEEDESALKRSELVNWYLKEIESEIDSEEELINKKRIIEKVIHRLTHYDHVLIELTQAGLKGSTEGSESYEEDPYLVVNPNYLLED
The assay is described as above. The settings on record: both partners purified.

T3 sequence (P49736 whole entry): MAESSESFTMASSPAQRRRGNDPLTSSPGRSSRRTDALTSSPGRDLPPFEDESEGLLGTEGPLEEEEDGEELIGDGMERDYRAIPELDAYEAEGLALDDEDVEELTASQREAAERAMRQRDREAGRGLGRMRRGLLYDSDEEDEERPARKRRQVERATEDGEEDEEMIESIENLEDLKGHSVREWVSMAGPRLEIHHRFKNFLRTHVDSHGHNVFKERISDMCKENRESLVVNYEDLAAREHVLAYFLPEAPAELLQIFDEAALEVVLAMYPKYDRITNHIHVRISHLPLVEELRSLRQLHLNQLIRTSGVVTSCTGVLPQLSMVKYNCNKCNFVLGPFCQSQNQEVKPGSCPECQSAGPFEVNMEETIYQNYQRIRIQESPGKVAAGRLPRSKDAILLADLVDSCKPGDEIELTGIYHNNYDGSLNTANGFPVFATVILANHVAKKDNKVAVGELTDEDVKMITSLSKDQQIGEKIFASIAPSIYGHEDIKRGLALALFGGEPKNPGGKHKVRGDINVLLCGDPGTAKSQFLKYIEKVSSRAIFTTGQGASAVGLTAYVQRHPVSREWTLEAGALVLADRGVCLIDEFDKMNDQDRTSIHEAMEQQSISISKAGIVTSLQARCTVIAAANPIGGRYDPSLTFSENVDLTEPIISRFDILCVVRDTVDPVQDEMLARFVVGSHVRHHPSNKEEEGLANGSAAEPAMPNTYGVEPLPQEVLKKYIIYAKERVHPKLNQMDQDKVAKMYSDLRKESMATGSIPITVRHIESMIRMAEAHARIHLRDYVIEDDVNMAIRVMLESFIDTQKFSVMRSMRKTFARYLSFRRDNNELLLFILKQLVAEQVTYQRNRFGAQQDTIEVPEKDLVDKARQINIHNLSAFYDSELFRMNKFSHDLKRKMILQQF

B1: human ORC2 (natural protein, UniProt Q13416 1-577, looked up)
chain: MSKPELKEDKMLEVHFVGDDDVLNHILDREGGAKLKKERAQLLVNPKKIIKKPEYDLEEDDQEVLKDQNYVEIMGRDVQESLKNGSATGGGNKVYSFQNRKHSEKMAKLASELAKTPQKSVSFSLKNDPEITINVPQSSKGHSASDKVQPKNNDKSEFLSTAPRSLRKRLIVPRSHSDSESEYSASNSEDDEGVAQEHEEDTNAVIFSQKIQAQNRVVSAPVGKETPSKRMKRDKTSDLVEEYFEAHSSSKVLTSDRTLQKLKRAKLDQQTLRNLLSKVSPSFSAELKQLNQQYEKLFHKWMLQLHLGFNIVLYGLGSKRDLLERFRTTMLQDSIHVVINGFFPGISVKSVLNSITEEVLDHMGTFRSILDQLDWIVNKFKEDSSLELFLLIHNLDSQMLRGEKSQQIIGQLSSLHNIYLIASIDHLNAPLMWDHAKQSLFNWLWYETTTYSPYTEETSYENSLLVKQSGSLPLSSLTHVLRSLTPNARGIFRLLIKYQLDNQDNPSYIGLSFQDFYQQCREAFLVNSDLTLRAQLTEFRDHKLIRTKKGTDGVEYLLIPVDNGTLTDFLEKEEEEA
notes: human origin recognition complex subunit 2 (hORC2); Subunit of m1; also called hORC2; source: S. cerevisiae YC658, co-overexpressed with the other hORC1-5 subunits; in lysate (co-purification) and purified as hORC1-5
Consider B1, for which the binding result in the assay with human MCM3 and with human ORC1 was “binds” each time.

B2: human ORC3 (natural protein, UniProt Q9UBD5 1-711, looked up)
chain: MATSSMSKGCFVFKPNSKKRKISLPIEDYFNKGKNEPEDSKLRFETYQLIWQQMKSENERLQEELNKNLFDNLIEFLQKSHSGFQKNSRDLGGQIKLREIPTAALVLGVNVTDHDLTFGSLTEALQNNVTPYVVSLQAKDCPDMKHFLQKLISQLMDCCVDIKSKEEESVHVTQRKTHYSMDSLSSWYMTVTQKTDPKMLSKKRTTSSQWQSPPVVVILKDMESFATKVLQDFIIISSQHLHEFPLILIFGIATSPIIIHRLLPHAVSSLLCIELFQSLSCKEHLTTVLDKLLLTTQFPFKINEKVLQVLTNIFLYHDFSVQNFIKGLQLSLLEHFYSQPLSVLCCNLPEAKRRINFLSNNQCENIRRLPSFRRYVEKQASEKQVALLTNERYLKEETQLLLENLHVYHMNYFLVLRCLHKFTSSLPKYPLGRQIRELYCTCLEKNIWDSEEYASVLQLLRMLAKDELMTILEKCFKVFKSYCENHLGSTAKRIEEFLAQFQSLDETKEEEDASGSQPKGLQKTDLYHLQKSLLEMKELRRSKKQTKFEVLRENVVNFIDCLVREYLLPPETQPLHEVVYFSAAHALREHLNAAPRIALHTALNNPYYYLKNEALKSEEGCIPNIAPDICIAYKLHLECSRLINLVDWSEAFATVVTAAEKMDANSATSEEMNEIIHARFIRAVSELELLGFIKPTKQKTDHVARLTWGGC
notes: human origin recognition complex subunit 3 (hORC3); Subunit of m1; also called hORC3; source: S. cerevisiae YC658, co-overexpressed with the other hORC1-5 subunits; in lysate (co-purification) and purified as hORC1-5
For B2, the binding result in the assay with human MCM2 and with human ORC1 was “binds” throughout.

B3: human ORC5 (natural protein, UniProt O43913 1-435, looked up)
chain: MPHLENVVLCRESQVSILQSLFGERHHFSFPSIFIYGHTASGKTYVTQTLLKTLELPHVFVNCVECFTLRLLLEQILNKLNHLSSSEDGCSTEITCETFNDFVRLFKQVTTAENLKDQTVYIVLDKAEYLRDMEANLLPGFLRLQELADRNVTVLFLSEIVWEKFRPNTGCFEPFVLYFPDYSIGNLQKILSHDHPPEYSADFYAAYINILLGVFYTVCRDLKELRHLAVLNFPKYCEPVVKGEASERDTRKLWRNIEPHLKKAMQTVYLREISSSQWEKLQKDDTDPGQLKGLSAHTHVELPYYSKFILIAAYLASYNPARTDKRFFLKHHGKIKKTNFLKKHEKTSNHLLGPKPFPLDRLLAILYSIVDSRVAPTANIFSQITSLVTLQLLTLVGHDDQLDGPKYKCTVSLDFIRAIARTVNFDIIKYLYDFL
notes: human origin recognition complex subunit 5 (hORC5); Subunit of m1; also called hORC5; source: S. cerevisiae YC658, co-overexpressed with the other hORC1-5 subunits; in lysate (co-purification) and purified as hORC1-5
Turning to B3, the binding result in the assay with human MCM6 and with human ORC1 was “binds” throughout.

B4: human ORC4 (natural protein, UniProt O43929 1-436, looked up)
chain: MSSRKSKSNSLIHTECLSQVQRILRERFCRQSPHSNLFGVQVQYKHLSELLKRTALHGESNSVLIIGPRGSGKTMLINHALKELMEIEEVSENVLQVHLNGLLQINDKIALKEITRQLNLENVVGDKVFGSFAENLSFLLEALKKGDRTSSCPVIFILDEFDLFAHHKNQTLLYNLFDISQSAQTPIAVIGLTCRLDILELLEKRVKSRFSHRQIHLMNSFGFPQYVKIFKEQLSLPAEFPDKVFAEKWNENVQYLSEDRSVQEVLQKHFNISKNLRSLHMLLMLALNRVTASHPFMTAVDLMEASQLCSMDSKANIVHGLSVLEICLIIAMKHLNDIYEEEPFNFQMVYNEFQKFVQRKAHSVYNFEKPVVMKAFEHLQQLELIKPMERTSGNSQREYQLMKLLLDNTQIMNALQKYPNCPTDVRQWATSSLSWL
notes: human origin recognition complex subunit 4 (hORC4); Subunit of m1; also called hORC4; source: S. cerevisiae YC658, co-overexpressed with the other hORC1-5 subunits; in lysate (co-purification) and purified as hORC1-5
In the case of B4, the binding result with human MCM6 and with human ORC1 was “binds” in each case.
